Values belong to the binder of their own block, whether it stands above or below them.
What was measured:
[1] = target: T1, 人IL-5蛋白 (human interleukin-5) (human, UniProt P05113 20-134); test: cell-based or functional assay
T1 sequence (looked up): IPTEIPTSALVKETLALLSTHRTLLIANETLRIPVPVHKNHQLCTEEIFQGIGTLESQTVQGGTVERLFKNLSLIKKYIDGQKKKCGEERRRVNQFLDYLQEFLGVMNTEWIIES

[2] = target: T1, 人IL-5蛋白 (human interleukin-5); test: affinity measurement (sensorgram, 1:1 binding model; Figure 3)

IC50(ng/mL), 阻断增殖 (TF-1 proliferation, CellTiter-Glo) [1]: 16.3 ng/mL
B1: RB0003-30E6D5 (antibody, V domains shown)
VH: EVQLQQSGAELVKPGASVKLSCTTSGFNIKDYFIHWVKQRTEQGLEWIGRIDPEDGETKYAPKFQGKATITADTSSNTAYLQLSSLTSEDTAVYYCVSYSTYPDYWGQGTTLTVSS
VL: HIVLTQSPALMSTSPGEKVTMTCSASSSVSYMYWYQQKPRSSPKPWIYLTSTLASGVPARFSGSGSGTSYSLTISSMEAEDAATYYCQQWSSTPFTFGSGTKLEIKR

binding result [2]: binds
B2: 人源化32D12C12抗体 (humanized 32D12C12) (antibody, V domains shown)
VH: EVQLVESGGGLVQPGGSLKLSCAASGFTFNTYAMNWVRQASGKGLEWVGRIRSKTANFATFYADSVTDRFTISRDDSKNTLYLQMNSLKTEDTAVYYCVRHGAYYTYDGAMDYWGQGTTVTVSS
VL: DIQMTQSPSSLSASVGDRVTITCKASQDVRTAIAWYQQKPGKAPKLLIYWASTRHTGVPSRFSGSGSGTDYTLTISSLQPEDFATYYCQQHYSTPYTFGQGTKLEIK
